Results taken from IntAct's records for PubMed 21447556.

B1: Protein piwi (Drosophila melanogaster (Fruit fly)), Q9VKM1 (parent)
chain: MADDQGRGRRRPLNEDDSSTSRGSGDGPRVKVFRGSSSGDPRADPRIEASRERRALEEAPRREGGPTERKPWGDQYDYLNTRPAELVSKKGTDGVPVMLQTNFFRLKTKPEWRIVHYHVEFEPSIENPRVRMGVLSNHANLLGSGYLFDGLQLFTTRKFEQEITVLSGKSKLDIEYKISIKFVGFISCAEPRFLQVLNLILRRSMKGLNLELVGRNLFDPRAKIEIREFKMELWPGYETSIRQHEKDILLGTEITHKVMRTETIYDIMRRCSHNPARHQDEVRVNVLDLIVLTDYNNRTYRINDVDFGQTPKSTFSCKGRDISFVEYYLTKYNIRIRDHNQPLLISKNRDKALKTNASELVVLIPELCRVTGLNAEMRSNFQLMRAMSSYTRMNPKQRTDRLRAFNHRLQNTPESVKVLRDWNMELDKNVTEVQGRIIGQQNIVFHNGKVPAGENADWQRHFRDQRMLTTPSDGLDRWAVIAPQRNSHELRTLLDSLYRAASGMGLRIRSPQEFIIYDDRTGTYVRAMDDCVRSDPKLILCLVPNDNAERYSSIKKRGYVDRAVPTQVVTLKTTKNRSLMSIATKIAIQLNCKLGYTPWMIELPLSGLMTIGFDIAKSTRDRKRAYGALIASMDLQQNSTYFSTVTECSAFDVLANTLWPMIAKALRQYQHEHRKLPSRIVFYRDGVSSGSLKQLFEFEVKDIIEKLKTEYARVQLSPPQLAYIVVTRSMNTRFFLNGQNPPPGTIVDDVITLPERYDFYLVSQQVRQGTVSPTSYNVLYSSMGLSPEKMQKLTYKMCHLYYNWSGTTRVPAVCQYAKKLATLVGTNLHSIPQNALEKKFYYL
partner: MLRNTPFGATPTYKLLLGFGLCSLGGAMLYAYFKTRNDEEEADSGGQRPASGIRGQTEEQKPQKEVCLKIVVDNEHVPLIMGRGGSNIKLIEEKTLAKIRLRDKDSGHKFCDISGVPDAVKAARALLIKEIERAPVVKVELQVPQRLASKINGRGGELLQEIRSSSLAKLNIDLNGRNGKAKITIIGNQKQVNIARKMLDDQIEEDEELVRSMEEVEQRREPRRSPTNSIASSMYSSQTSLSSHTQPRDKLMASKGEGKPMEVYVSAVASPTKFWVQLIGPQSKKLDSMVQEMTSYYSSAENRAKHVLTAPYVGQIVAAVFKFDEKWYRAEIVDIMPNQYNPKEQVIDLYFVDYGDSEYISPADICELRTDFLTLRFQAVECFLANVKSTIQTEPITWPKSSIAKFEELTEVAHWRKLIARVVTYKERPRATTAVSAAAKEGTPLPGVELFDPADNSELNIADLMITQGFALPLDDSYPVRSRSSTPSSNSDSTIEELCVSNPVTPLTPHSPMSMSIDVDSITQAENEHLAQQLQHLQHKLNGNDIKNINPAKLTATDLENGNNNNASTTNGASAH
B2: Protein argonaute-3 (Drosophila melanogaster (Fruit fly)), Q7PLK0 (parent)
chain: MSGRGNLLSLFNKNAGNMGKSISSKDHEIDSGLDFNNSESSGERLLSSHNIETDLITTLQHVNISVGRGRARLIDTLKTDDHTSNQFITSESKENITKKTKGPESEAIASENGLFFPDLIYGSKGSSVNIYCNYLKLTTDESKGVFNYEVRFFPPIDSVHLRIKYLNDHKDKLGGTKTFDGNTLYLPILLPNKMTVFISKAEDVELQIRILYKKKEEMRNCTQLYNILFDRVMKVLNYVKFDRKQFDPSRPKIIPLAKLEVWPGYVTAVDEYKGGLMLCCDVSHRILCQKTVLEMLVDLYQQNVEHYQESARKMLVGNIVLTRYNNRTYKINDICFDQNPTCQFEIKTGCTSYVEYYKQYHNINIKDVNQPLIYSIKKSRGIPAERENLQFCLIPELCYLTGLRDEVRSDNKLMREIATFTRVSPNQRQMALNKFYENVSNTPAAQEILNSWGLSLTNNSNKISGRQMDIEQIYFSKISVSAGRSAEFSKHAVTNEMLKVVHLSKWIIIHLRNYRQAATSLLDNMKQACESLGMNISNPTMISLDHDRIDAYIQALRRNITMNTQMVVCICHNRRDDRYAAIKKICCSEIPIPSQVINAKTLQNDLKIRSVVQKIVLQMNCKLGGSLWTVKIPFKNVMICGIDSYHDPSNRGNSVAAFVASINSSYSQWYSKAVVQTKREEIVNGLSASFEIALKMYRKRNGKLPTNIIIYRDGIGDGQLYTCLNYEIPQFEMVCGNRIKISYIVVQKRINTRIFSGSGIHLENPLPGTVVDQHITKSNMYDFFLVSQLVRQGTVTPTHYVVLRDDCNYGPDIIQKLSYKLCFLYYNWAGTVRIPACCMYAHKLAYLIGQSIQRDVAEALSEKLFYL
partner: B1 partner

Variants of: B1
Conditions: with tdrkh_drome papi

| Variant | effect of a mutation on the interaction |
| --- | --- |
| R7K;R9K | disrupting interaction strength |

Variants of: B2
Conditions: with tdrkh_drome papi

| Variant | effect of a mutation on the interaction |
| --- | --- |
| R68K;R70K;R72K | disrupting interaction strength |
